Sequences and labels used below:
B1: VHH 25F01 (VHH)
VHH: EVQLVESGGGLVQAGGSLRLSCAVSGLPFDDYVIGWFRQAPGKEREGVSCISSSDGSTYYADSVKGRFTISSDNAKNTVYLQMNSLKPEDTAAYYCAAGGPRINIATMTCSHDEYEYDYWGQGTQVTVSS
notes: also called 025F01; not shown: C-terminal c-myc tag and His6 tag
B2: VHH 22C07 (VHH)
VHH: EVQLVESGGGLVQAGGSLRLSCAASGFTFDDYAIGWFRQAPGKEREGVSCISSSDGSTYYADSVKGRFTISSDNAKNTVYLQMNSLKPEDTAVYYCAADFIISSKRLCLDLFGSRGQGTQVTVSS
notes: also called 022C07; not shown: C-terminal c-myc tag and His6 tag
B3: VHH 15H04 (VHH)
VHH: EVQLVESGGGLVQAGGSLGLSCAASERTLPSYVMGWFRQAPGKELEFVAGISWSSGRTYYTDSVKGRFTISRDAAENTWYLQMNSLKPEDTAVYYCASNSVSEPTLHTWQYEASYDYWGQGTQVTVSS
notes: also called 015H04; not shown: C-terminal c-myc tag and His6 tag
B4: VHH 21G10 (VHH)
VHH: EVQLVESGGGLVQAGGSLRLSCAASGFTLDDYAIGWFRQAPGKEREGVSCISSSDGSTTYADSVKGRFTVSSDNAKNTVYLQMNSLKPEDTAVYYCAAGLRGRYYRGTYSLVCAPYEYDFWGQGTQVTVSS
notes: also called 021G10; not shown: C-terminal c-myc tag and His6 tag
B5: VHH 00044 (VHH, not shown: small tags and cut ends)
VHH: EVQLVESGGGLVQPGGSLRLSCAASGFALDYYAIGWFRQAPGKEREGVSCISSSDGITYYVDSVKGRFTISRDNSKNTVYLQMNSLRPEDTAVYYCATDSGGYIDYDCMGLGYDYWGQGTLVTVSS
B6: VHH 00045 (VHH, not shown: small tags and cut ends)
VHH: B5 VHH with V61A
B7: VHH 00046 (VHH, not shown: small tags and cut ends)
VHH: B5 VHH with D55G
B8: VHH 1D01 (VHH, not shown: small tags and cut ends)
VHH: EVQLVESGGGLVQAGGSLRLSCAASGFTFDDYALGWFRQAAGKEREGVSCIRCSDGSTYYADSVKGRFTISSDNAKNTVYLQMNSLKPEDTAVYYCAASIVPRSKLEPYEYDAWGQGTQVTVSS
notes: Parental llama VHH; also called 001D01
B9: VHH 00039 (VHH, not shown: small tags and cut ends)
VHH: B8 VHH with A14P, S72R, A75S, K87R, Q119L
B10: VHH 00050 (VHH, not shown: small tags and cut ends)
VHH: B8 VHH with A14P, A41P, A75S, K87R, Q119L
B11: VHH 00040 (VHH, not shown: small tags and cut ends)
VHH: B8 VHH with A14P, A41P, S72R, A75S, K87R, Q119L
B12: VHH 00049 (VHH, not shown: small tags and cut ends)
VHH: B8 VHH with A14P, A75S, K87R, Q119L
B13: VHH 00925 (VHH, not shown: small tags and cut ends)
VHH: B8 VHH with E1D, A14P, A41P, D55G, A75S, K87R, Q119L
B14: VHH 00051 (VHH, not shown: small tags and cut ends)
VHH: B8 VHH with A14P, D55G, A75S, K87R, Q119L
B15: VHH 00025 (VHH, not shown: small tags and cut ends)
VHH: EVQLVESGGGLVQAGGSLRLSCAASGFTLDDYAIGWFRQAPGKEREGVSTIRDSDGSTYYADSVKGRFTISSDNDKNTVYLQMNSLKPEDTAVYYCAAVPAGRLRFGEQWYPLYEYDAWGQGTLVTVSS
B16: VHH 00055 (VHH, not shown: small tags and cut ends)
VHH: B15 VHH with T50S, S54N, D55G
B17: VHH 00048 (VHH, not shown: small tags and cut ends)
VHH: B15 VHH with T50S
B18: VHH 00041 (VHH, not shown: small tags and cut ends)
VHH: B15 VHH with A14P, T50S, S54N, D75A, K87R
B19: VHH 00054 (VHH, not shown: small tags and cut ends)
VHH: B15 VHH with A14P, T50S, S54N, S72R, D75S, K87R
B20: VHH 00026 (VHH, not shown: small tags and cut ends)
VHH: B15 VHH with T50A
B21: VHH 00053 (VHH, not shown: small tags and cut ends)
VHH: B15 VHH with A14P, T50S, S54N, S72R, K87R
B22: VHH 00052 (VHH, not shown: small tags and cut ends)
VHH: B15 VHH with A14P, T50S, S54N, K87R
B23: VHH 00043 (VHH, not shown: small tags and cut ends)
VHH: B15 VHH with A14P, T50S, S54N, S72R, D75A, K87R
B24: VHH 00934 (VHH, not shown: small tags and cut ends)
VHH: B15 VHH with A14P, F27I, T50A, D53E, D55G, D75S, K87R, F106Y, L113I
notes: Cycle 3 variant of 28D10 on the 00908 backbone
B25: VHH 00937 (VHH, not shown: small tags and cut ends)
VHH: B15 VHH with A14P, A24V, F27I, T50A, D53E, D55G, D75S, K87R, F106Y, L113I
notes: as for B24
B26: VHH 00936 (VHH, not shown: small tags and cut ends)
VHH: B15 VHH with A14P, A24V, F27I, T50A, S54N, D55G, D75S, K87R, F106Y, L113I
notes: as for B24
B27: VHH 22G11 (VHH)
VHH: EVQLVESGGGLVQAGGSLRLSCAVSGFTFDDYAIGWFRQAPGKEREGVSCISRSDGSPYYADSVKGRFTISSDNAKGTVYLQMSSLKPEDTAVYYCAASWSGAYYSGTYYCDRLYEYDAWGQGTQVTVSS
notes: Tested as periplasmic extract; also called 022G11; not shown: C-terminal c-myc tag and His6 tag

A word on the IC50: it is the concentration at which inhibition is half-maximal. High values mean lower potency, low ones higher potency.

Changes are numbered by the printed parent chain.

The target in one experiment is T1, N-terminally FLAG-tagged mouse Ang2 (HEK293T conditioned medium) (mouse, UniProt O35608 19-496).
T1 construct: may be a nucleotide entry; also called mAng2; FLAG-mAng2
T1 sequence: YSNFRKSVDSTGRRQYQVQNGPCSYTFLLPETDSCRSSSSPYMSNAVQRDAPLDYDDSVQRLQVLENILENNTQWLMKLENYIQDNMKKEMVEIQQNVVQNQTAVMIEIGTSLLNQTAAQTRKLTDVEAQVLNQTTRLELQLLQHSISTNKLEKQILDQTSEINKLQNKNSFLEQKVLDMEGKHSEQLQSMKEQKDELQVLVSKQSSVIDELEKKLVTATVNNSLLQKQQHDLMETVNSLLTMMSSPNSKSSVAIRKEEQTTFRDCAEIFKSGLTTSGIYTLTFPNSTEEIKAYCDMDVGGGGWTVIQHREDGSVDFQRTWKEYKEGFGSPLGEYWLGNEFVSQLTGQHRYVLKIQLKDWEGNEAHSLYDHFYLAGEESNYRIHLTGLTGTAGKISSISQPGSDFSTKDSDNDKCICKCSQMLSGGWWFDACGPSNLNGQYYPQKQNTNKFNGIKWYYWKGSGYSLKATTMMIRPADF
The experiment is described as follows: competition ELISA, FLAG-mAng2 on coated mTie2-Fc. As to the method:
(§1) In brief, 2 μg/mL of recombinant mouse Tie2-Fc or cyno Tie2-Fc is coated overnight at 4° C. in a 96-well MaxiSorp plate (Nunc, Wiesbaden, Germany). Coated wells are blocked with a 1% casein solution.
(In general: ELISA stands for enzyme-linked immunosorbent assay.)
Molecule B1 registered a concentration for half-maximal inhibition (IC50) of 13.3 nM.

Molecule B2 yielded a concentration for half-maximal inhibition (IC50) of 13.6 nM.

Molecule B3 had an IC50 of 125 nM.

B4 returned an IC50 of 16.8 nM.

The next experiment concerns the target T2, FLAG-tagged mouse Ang2 (mouse, UniProt O35608 19-496).
T2 construct: N-terminally FLAG-tagged, conditioned medium of HEK293T cells; also called mAng2; FLAG-mAng2
T2 sequence: T1 sequence
As to the kind of experiment: competition ELISA: FLAG-mAng2 binding to coated mTie2-Fc. As to the method:
as §1
In the case of B5, the IC50 was 0.091 nM.

With B6, the IC50 came out at 0.11 nM.

B7 yielded an IC50 of 0.083 nM.

Molecule B8 returned an IC50 of 12.4 nM.

B9 yielded an IC50 of 28.1 nM.

As to B10, the IC50 worked out at 18.6 nM.

B11 yielded an IC50 of 29 nM.

In the case of B12, the IC50 came to 20.3 nM.

With B13, the IC50 was found to be 28.4 nM.

The molecule B14 yielded an IC50 of 37.9 nM.

The target of a further experiment is T3, FLAG-tagged cynomolgus Ang2 (cynomolgus, UniProt O15123 19-496 (human entry), limits assumed).
T3 construct: N-terminally FLAG-tagged, conditioned medium of HEK293T cells; also called cAng2; FLAG-cAng2
T3 chain: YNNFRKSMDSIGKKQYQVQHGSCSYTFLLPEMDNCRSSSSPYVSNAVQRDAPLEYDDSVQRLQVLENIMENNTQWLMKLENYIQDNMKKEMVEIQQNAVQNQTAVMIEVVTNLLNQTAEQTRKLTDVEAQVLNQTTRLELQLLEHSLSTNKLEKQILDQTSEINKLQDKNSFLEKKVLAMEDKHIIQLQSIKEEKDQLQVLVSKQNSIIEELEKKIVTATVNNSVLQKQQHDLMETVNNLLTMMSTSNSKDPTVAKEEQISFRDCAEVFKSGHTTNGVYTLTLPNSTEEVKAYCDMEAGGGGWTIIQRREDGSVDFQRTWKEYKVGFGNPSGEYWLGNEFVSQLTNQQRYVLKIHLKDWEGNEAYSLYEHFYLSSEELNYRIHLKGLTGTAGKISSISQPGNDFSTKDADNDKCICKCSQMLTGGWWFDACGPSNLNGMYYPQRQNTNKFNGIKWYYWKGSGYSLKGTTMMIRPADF
The experiment is described as follows: competition ELISA: FLAG-cAng2 binding to coated cTie2-Fc. As to the method:
as §1
In the case of B5, the IC50 worked out at 0.13 nM.

The molecule B6 gave an IC50 of 0.16 nM.

Consider B7, for which the IC50 was found to be 0.16 nM.

Turning to B8, the IC50 worked out at 9.1 nM.

For B9, the IC50 amounted to 6.4 nM.

The molecule B10 displayed an IC50 of 4.8 nM.

On to B11, for which the IC50 worked out at 5.8 nM.

The molecule B12 came in with an IC50 of 4.5 nM.

The molecule B13 showed an IC50 of 33 nM.

As to B14, the IC50 was found to be 15 nM.

In the case of B15, the IC50 was 1.7 nM.

For B16, the IC50 worked out at 2 nM.

In turn, B17 yielded an IC50 of 1 nM.

For the molecule B18, the IC50 was 0.9 nM.

Take B19: the IC50 turned out to be 11.7 nM.

B20 returned an IC50 of 1.1 nM.

B21 displayed an IC50 of 13.8 nM.

B22 displayed an IC50 of 0.8 nM.

Molecule B23 had an IC50 of 12.6 nM.

The target of another experiment is T2, FLAG-tagged mouse Ang2. As to the kind of experiment: competition ELISA: FLAG-mAng2 binding to coated mTie2-Fc. This is another data set of the same source. As to the method:
as §1
B15 yielded an IC50 of 4.9 nM.

Turning to B16, the IC50 was determined as 4.6 nM.

The molecule B17 gave an IC50 of 2.1 nM.

B18 had an IC50 of 1.7 nM.

B19 registered an IC50 of 22.9 nM.

Turning to B20, the IC50 is 2.6 nM.

Consider B21, for which the IC50 was 36.7 nM.

Consider B22, for which the 50% inhibitory concentration (IC50) came to 2.1 nM.

On to B23, for which the half-inhibitory concentration (IC50) was 29.2 nM.

For the next experiment, the target named is T3, FLAG-tagged cynomolgus Ang2. The experiment is described as follows: competition ELISA: FLAG-cAng2 binding to coated cTie2-Fc. The source holds these as a separate data set. As to the method:
as §1
In turn, B24 showed an IC50 of 0.071 nM.

B25 gave an IC50 of 0.085 nM.

As for B26, the IC50 is 0.06 nM.

Another experiment has as its target T1, N-terminally FLAG-tagged mouse Ang2 …. As to the kind of experiment: competition ELISA, periplasmic extract, FLAG-mAng2 on mTie2/Fc. As to the method: In brief, human Tie2/Fc chimera (R&D Systems, Minneapolis, Minn., USA) is biotinylated using N-hydroxysulfosuccinimide ester of biotin (Thermo Fisher Scientific, Rockford, Ill., USA). […] To this mixture, the Acceptor beads and 0.3 nM biotinylated human Tie2/Fc chimeras are added and further incubated for 2 hours at room temperature. Finally, streptavidin conjugated Donor beads (Perkin Elmer, Waltham, Mass., US) are added and the mixture is incubated for an additional 2 hours at room temperature. Assay buffer is PBS+0.03% Tween-20+0.1% BSA. Fluorescence is measured using the Envision Multilabel Plate reader (Perkin Elmer, Waltham, Mass., USA) using an excitation wavelength of 680 nm and an emission wavelength of 520 nm. […] In brief, human or mouse Tie2/Fc chimera (R&D Systems, Minneapolis, Minn., USA) are immobilized at 2 μg/mL overnight at 4° C. in a 96-well MaxiSorp plate (Nunc, Wiesbaden, Germany). Wells are blocked with a 1% casein solution. […] This mixture is added to the Tie2/Fc coated well and incubated for 2 hours at room temperature. Residual binding of Ang is detected using HRP-conjugated anti-FLAG M2 antibody (Sigma, St Louis, Mo., USA).
Consider B27, for which the “% inh” value came to 98%.

Take B1: the “% inh” value worked out at 42%.

Consider B2, for which the “% inh” value was found to be 82%.

In the case of B3, the “% inh” value came out at 38%.

The values are drawn from patent US20230203146A1 (Boehringer Ingelheim, published 2023).
